The target in the test is Vibrio His-FliFG fusion protein with the FliG-G214S mutation (Vibrio alginolyticus). Kind of test: cryo-EM structure; single-particle cryo-EM of the purified, concentrated MS-ring in buffer with LMNG; grids frozen after blotting at 4°C, 100% humidity; two classes with 35- or 34-fold rotational symmetry.

Where “and” joins values, the source holds several entries; their conditions need not be identical. Equal entries are not always repeated.

As a reminder, the stoichiometry N is the number of molecules, sites or subunits per partner or assembly. On to “Vibrio His-FliFG fusion protein with the FliG-G214S mutation”, for which the stoichiometry N was 35 and 34.

These data come from article PMC11481574.
